Assay results published in patent US20170211067, “ANTAGONISTIC CTLA-4 APTAMERS AND APPLICATIONS THEREOF IN ENHANCING IMMUNE ACTIVITY” (Academia Sinica, published 2017).

B1: CA32 (ssDNA)
DNA: TCCCTACGGCGCTAACGTCCACACTCAGAAAACAGAATAGGGGGTAGCCACCGTGCTACAAC
B2: CA21 (ssDNA)
DNA: TCCCTACGGCGCTAACGATGGTGAAAATGGGCCTAGGGTGGACGGTGCCACCGTGCTACAAC
B3: CA82 (ssDNA)
DNA: TCCCTACGGCGCTAACCGATCGAAAATGTCCAGGGAGTTGTCTGTAGCCACCGTGCTACAAC

How the values were obtained:
CTLA-4 [1] = biological target: T1, CTLA-4 (UniProt P16410 P16410:36-161); experiment: CTLA-4 stably expressing 293 cells; no binding to non-transfected 293T by flow at 10 nM; conditions: tags: expressed on CTLA-4-transfected 293T / stably expressing 293 cells; label: AlexaFluor 647 (flow cytometry)
T1 sequence (P16410 36-161, one chain of several): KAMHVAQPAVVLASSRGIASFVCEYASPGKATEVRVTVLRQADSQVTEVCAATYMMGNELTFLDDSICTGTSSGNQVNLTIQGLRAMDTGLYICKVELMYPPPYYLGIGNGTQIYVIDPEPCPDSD
Protocol: (§1) Panels A and B are FACS analysis diagrams showing the binding activities of selected aptamers to CTLA-4 expressed on wild-type 293T cells. […] The cells of panel A and panel B were incubated with 10 nM of AlexaFluor 647 labeled CA7, CA21, CA32 and CA82 aptamer as indicated. After washing away the unbounded aptamer, the fluorescent signals were measured by flow cytometry and the results of wild-type 293T cells are shown in panel A. The results for CTLA-4 expressing wild-type 293T cells are shown in panel B. Panels C, D, E and F show the CTLA-4 binding affinity of the aptamers CA7, CA21, CA32 and CA82, respectively. The four aptamers were selected and characterized for their binding affinity against CTLA-4 expressing cells. These aptamers were first synthesized and followed by 2-fold serial dilution which started from 250 nM. Six dosage points were analyzed after incubation of the selected pool with CTLA-4 stably expressed 293 cells.
(§2) Four aptamers (CA7, CA21, CA32 and CA82) isolated by the method described in Example 1 were selected by their higher structural stability. The binding specificity of these four aptamers were analyzed by flow cytometry. All four of these apatmers specifically recognized CTLA-4-expressing cells, except a relatively low non-specific binding signal in CA7 against wild type 293 cells (FIG. 2, panels A and B). […]

CTLA-4 [2] = biological target: T1, CTLA-4; experiment: CTLA-4 stably expressing 293 cells, 2-fold dilutions from 250 nM; no binding to non-transfected 293T by flow at 10 nM; conditions: tags: expressed on CTLA-4-transfected 293T / stably expressing 293 cells; label: AlexaFluor 647 (flow cytometry); possible G-quadruplex; Mfold secondary structure dG -10.6
Protocol: as §1, §2

CTLA-4 [3] = biological target: CTLA-4 (Mus musculus, UniProt P09793 P09793:36-161); experiment: CA21 stated to cross-react with mouse CTLA-4, assay not described; conditions: label: AlexaFluor 647 (flow cytometry)
Chain of CTLA-4 (Mus musculus, UniProt P09793 P09793:36-161) (P09793 36-161, one chain of several): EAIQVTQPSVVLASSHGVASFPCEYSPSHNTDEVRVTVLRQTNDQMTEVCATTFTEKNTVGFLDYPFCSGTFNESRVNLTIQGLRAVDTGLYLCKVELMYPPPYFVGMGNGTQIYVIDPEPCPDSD

| Binder | Kd (CTLA-4 [1]) | Kd (CTLA-4 [2]) | binding result (CTLA-4 [3]) |
| --- | --- | --- | --- |
| B1 | 61.8 nM | – | – |
| B2 | – | 11.8 nM | binds |
| B3 | 36.5 nM | – | – |
